Consider two molecules from article PMC6395706, “Unique properties of PTEN-L contribute to neuroprotection in response to ischemic-like stress” (Scientific Reports, 2019).

The target in assay [1] is endogenous PTEN-L (mouse (endogenous in primary cortical neurons)). Put plainly: proximity ligation; Duolink PLA with anti-GAB2 and anti-PTEN-L antibodies in fixed, permeabilised primary neurons at DIV 9 treated with 50 µM glutamate for 60 min; proximities below 40 nm.
For assay [2], the target named is T1, PTEN-L:EGFP (human, UniProt P60484-2 1-576).
T1 construct: human PTEN-L (PTENα), the long translational variant of PTEN with 173 additional N-terminal residues (aa 1-173 unique, aa 174-576 shared with PTEN); gene synthesis with an ATG start codon replacing the alternative CTG start; PCR primers run from the start codon to the last codon before the spacer; A Gly-Gly-Thr-Gly-Gly spacer precedes the C-terminal EGFP; Cloned in the lentiviral transfer vector …
The description is as above. Particulars: partners not purified.

In the case of “GRB2-associated-binding protein 2 (from UniProt Q9Z1S8 1-665) (natural protein)”, the fold decrease of PLA interaction complexes, glutamate against PBS in assay [1] came out at 3.98 fold.

B1: GRB2-associated-binding protein 2 (natural protein, UniProt Q9Z1S8 1-665, looked up)
chain: MSGGGGDDVVCTGWLRKSPPEKKLRRYAWKKRWFILRSGRMSGDPDVLEYYKNEHSKKPLRIINLNLCEQVDAGLTFNKKELQDSFVFDIKTSERTFYLVAETEADMNKWVQSICQICGFNQAEESTDSLRNLSSASHGPRSSPAEFSSSQHLLRERKSSAPSHSSQPTLFTFEPPVSSHMQPTLSTSAPQEYLYLHQCISRRTENARSASFSQGTRQKSDTAVQKLAQSNGHCINGVGGQVHGFYSLPKPSRHNTEFKDSTYDLPRSLASHGHTKSSLTGSETDNEDVYTFKMPSNTLCRELGDLLVDNMDVPTTPLSAYQIPRTFTLDKNHNAMTVATPGDSAIAPPPRPPKPSQAETSQWGSIQQRPPISENSRSVAATIPRRNTLPAMDNSRLHRASSCETYEYPARGSGESASWSAEPPGKTAVGRSNSASSDDNYVPMNPGSSTLLAMERPGDNSQSVYIPMSPGPHHFDPLGYPSTALPIHRGPSRGSEIQPPPVNRNLKPDRKAKPTPLDLRNNTVIDELPFKSPVTKSWSRINHTFNSSSSQYCRPISTQSITSTDSGDSEENYVPMQNPVSASPVPSGTNSPAPKKSTGSVDYLALDFQPGSPSPHRKPSTSSVTSDEKVDYVQVDKEKTQALQNTMQEWTDVRQSSEPSKGAKL
notes: also called Gab2; GAB2; source: endogenous, mouse primary cortical neurons; in cytosolic or nuclear fractions, or in fixed cells
Take B1: the “fold decrease of PLA interaction complexes, glutamate against PBS” value in assay [2] came to 4.61 fold.
